Laboratory results: publication doi:10.1101/2023.06.13.544830

Target: T1, OC2 (CUT-HOX) (human, UniProt O95948 330-485)
T1 sequence: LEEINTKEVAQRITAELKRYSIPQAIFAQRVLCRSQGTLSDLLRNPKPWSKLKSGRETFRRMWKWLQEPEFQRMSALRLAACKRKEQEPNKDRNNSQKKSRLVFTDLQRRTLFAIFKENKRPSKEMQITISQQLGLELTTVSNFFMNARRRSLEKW
Assay: BLI

B1: PEG10 promoter duplex, biotinylated (dsDNA)
DNA 1: AGATCGATTTGC
DNA 2: GCAAATCGATCT
modifications: 5'-biotin on one strand
B1: binds.
